Test results reported in patent US20150216779A1, “COMPOSITIONS FOR TARGETED ANTI-AGING THERAPY” (THE TEXAS A&M UNIVERSITY SYSTEM, priority 2012, published 2015).

What was measured:
[1] = Turbidity after heating at 90° C. for 30 seconds (plate heat exchanger); assay type: physicochemical; settings: 1 mg/ml lactoferrin in 10 mM potassium acetate, pH 6.3; heated at 90° C. for 30 seconds
Experimental: Formulations containing heat-stabilized lactoferrin (1 mg/ml) without added branched-chain amino acids (Formulation 1) and heat-stabilized lactoferrin (1 mg/ml) with added branched-chain amino acids (2 mg/ml) (Formulation 2) were dissolved in the buffered solution (10 mM potassium acetate, pH 6.3) to make 4 liters solution. The two liquid formulations were heated by using a plate heat exchanger at 90° C. for 30 seconds, and cooled to 5° C., after which they were stored in sterilized bottles, and bubbled with carbon dioxide (CO2) in an aseptic room. The two resultant liquid formulations with a zinc ion concentration of 2.4 mg per 100 ml had excellent taste and appearance. […] Lactoferrin aggregation occurred at pH 6.3, which corresponded to its high thermal instability.

[2] = heat-treated at 63 and 85° C.; cited from earlier work

B1: lactoferrin: iron-binding glycoprotein of the transferrin family present in milk; unstabilized buffered solution at 1 mg/ml (protein, UniProt P24627 20-708, looked up)
Lactotransferrin: APRKNVRWCTISQPEWFKCRRWQWRMKKLGAPSITCVRRAFALECIRAIAEKKADAVTLDGGMVFEAGRDPYKLRPVAAEIYGTKESPQTHYYAVAVVKKGSNFQLDQLQGRKSCHTGLGRSAGWIIPMGILRPYLSWTESLEPLQGAVAKFFSASCVPCIDRQAYPNLCQLCKGEGENQCACSSREPYFGYSGAFKCLQDGAGDVAFVKETTVFENLPEKADRDQYELLCLNNSRAPVDAFKECHLAQVPSHAVVARSVDGKEDLIWKLLSKAQEKFGKNKSRSFQLFGSPPGQRDLLFKDSALGFLRIPSKVDSALYLGSRYLTTLKNLRETAEEVKARYTRVVWCAVGPEEQKKCQQWSQQSGQNVTCATASTTDDCIVLVLKGEADALNLDGGYIYTAGKCGLVPVLAENRKSSKHSSLDCVLRPTEGYLAVAVVKKANEGLTWNSLKDKKSCHTAVDRTAGWNIPMGLIVNQTGSCAFDEFFSQSCAPGADPKSRLCALCAGDDQGLDKCVPNSKEKYYGYTGAFRCLAEDVGDVAFVKNDTVWENTNGESTADWAKNLNREDFRLLCLDGTRKPVTEAQSCHLAVAPNHAVVSRSDRAAHVKQVLLHQQALFGKNGKNCPDKFCLFKSETKNLLFNDNTECLAKLGGRPTYEEYLGTEYVTAIANLKKCSTSPLLEACAFLTR
For B1, the “appearance of solution after heating (turbidity / transparency)” value [1] is given as “turbid” and the “immunological properties after heat treatment” value [2] is given as “loses its immunological properties”.
